In PMC8505397, “Development of peptides targeting receptor binding site of the envelope glycoprotein to contain the West Nile virus infection” (Scientific Reports, 2021):
Several values for one entry are separate records, joined by “and”; a condition that tells them apart may be missing. Equal entries are not always repeated. Positions of bridges follow the written chain, without caps; N, C: chain ends. No end group written: not given here.

Tests used:
rDIII = molecular target: T1, rDIII (West Nile virus, UniProt P06935); assay: ELISA of the binding of 7-mer cyclic and 12-mer linear peptides to rDIII; conditions: peptides coated through C-terminus in CovaLink NH plates; 1 µg rDIII; HisProbe-HRP; negative control subtracted
T1 construct: rDIII – recombinant domain III; made in house; host or cells: E. coli M15
T1 sequence (P06935 584-692 limits assumed): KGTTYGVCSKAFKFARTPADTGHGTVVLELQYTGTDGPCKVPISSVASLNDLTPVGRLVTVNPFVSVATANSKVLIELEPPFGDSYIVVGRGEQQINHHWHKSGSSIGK
Method: The 7-mer cyclic and 12-mer linear peptides were covalently bound in CovaLink NH microwell plates and their binding to rDIII was corroborated by ELISA. Details are presented in Supplementary Method S11.
Confirmation of the binding of 7-mer cyclic and 12-mer linear peptides to rDIII by ELISA. The 7-mer cyclic and 12-mer linear peptides were covalently bound in CovaLink NH microwell plates overnight at 4°C as per the manufacturer´s instructions (Thermo Fischer Scientific).
Unbound peptides were washed with PBS (pH 7.4) and non-specific sites were blocked with 0.5% BSA in PBS for 1 h at room temperature. After blocking, wells were washed 2 times for 2 min with CovaBuffer (2 M NaCl, 40 mM MgSO4.7H2O, 0.05% Tween 20, PBS; pH 7.2). One microgram of rDIII diluted in 0.05% PBST was added in separate wells and incubated for 1 h at room temperature with constant shaking. Wells were washed 3 times for 2 min with CovaBuffer and interaction was detected with HisProbe-HRP conjugate (1:5,000 dilution in 0.1% BSA in PBST; Thermo Fisher Scientific) for 30 min at room temperature with constant shaking. After 6 washings, the chromogenic reaction was developed using a 1-Step Ultra TMB-ELISA substrate (Thermo Fisher Scientific). After 25 min, the reaction was stopped with 2 M H2SO4 and absorbance was measured at 450 nm. For negative controls, either rDIII or peptides were excluded from the protocol. The assay was performed in triplicates. […]

[1] = molecular target: T2, interaction between rDIII and ~ 15 kDa receptor of hBMECs (West Nile virus, UniProt P06935); assay: Blocking of interaction between rDIII and proteins of hBMECs by peptides (Western blot); type: binding, West Nile virus / human; conditions: 2.5 µg (0.19 nM) rDIII pre-incubated with tenfold molar excess (1.9 nM) of peptide
T2 construct: rDIII – recombinant domain III; made in house; host or cells: E. coli M15
T2 sequence (P06935 584-692 limits assumed): T1 sequence (P06935 584-692 limits assumed)
Method: (§1) First, concentration-dependent ELISA and Western blot were performed to get the minimum concentration of rDIII required to show its interaction with hBMECs proteins. Details are presented in Supplementary Method S12 and Supplementary Method S13. Subsequently, the ability of 7-mer and 12-mer peptides to block the interaction between rDIII and proteins of hBMECs was tested. A tenfold molar excess of peptides was incubated with rDIII for 1 h at room temperature. Such pre-incubated rDIII was subsequently used in the assays. Details of both methods are described in Supplementary Method S12 and Supplementary Method S13. […]
Blocking of interaction between rDIII and proteins of hBMECs by peptides (Western blot).
Two hundred micrograms of proteins extracted from hBMECs were separated on 2-well PAGE […]
gel (12% polyacrylamide gel) and transferred on 0.45 μm nitrocellulose membrane (Amersham Protran; GE Healthcare) for 1 h at 30 V. Details of LDS-PAGE are described in Supplementary Methods S7. The membrane was cut horizontally to obtain proteins of molecular weight between ~10 kDa to ~25 kDa. Subsequently, this membrane was sliced vertically to obtain 0.3 cm strips, which were then used in Western blot (Supplementary Fig.
The NC strips with transblotted hBMECs proteins were first incubated with rDIII at various concentrations to find out the minimal concentration of rDIII required to detect the interaction with hBMECs proteins. Non-specific binding sites were blocked with 1% BSA in 0.05% TBST (pH 7.2) for 1 h at room temperature and constant shaking followed by a washing step for 5 min with 0.05% TBST. The NC strips were incubated with rDIII at different concentrations (5 µg, 2.5 µg, 2 µg, 1 µg, 500 ng) diluted in 1 mL of 0.05% TBST for 3 h at room temperature and constant shaking. After 3 washings with 0.05% TBST, strips were incubated with HisProbe-HRP conjugate (1:5,000 dilution in 0.1% BSA in 0.05% TBST; Thermo Fisher Scientific) for 30 min at room temperature. Six washings, each of 5 min were performed before incubating the strips in SuperSignal chemiluminescence substrate (Thermo Fisher Scientific). The signal was captured on the C-DiGit Blot Scanner (Odyssey CLx, LI-COR Biosciences). For negative control, rDIII was excluded from the above-mentioned protocol.
To block the interaction, the NC strips were blocked as described above.
Simultaneously, 2.5 µg (0.19 nM) of rDIII were pre-incubated with 2.75 µg of each peptide (10-fold molar excess; 1.9 nM) in TBS for 1 h at room temperature. Further on, strips were incubated with pre-incubated rDIII for 3 h at room temperature with constant shaking. After 3 washings with 0.05% TBST, strips were incubated with HisProbe-HRP conjugate as described above. […]

[2] = molecular target: T3, interaction between rDIII and proteins of hBMECs (West Nile virus, UniProt P06935); assay: Blocking of interaction between rDIII and proteins of hBMECs by peptides (ELISA); type: binding, West Nile virus / human; conditions: rDIII 0.15 nM pre-incubated with tenfold molar excess (1.5 nM) of peptide; ELISA
T3 construct: rDIII – recombinant domain III; made in house; host or cells: E. coli M15
T3 sequence (P06935 584-692 limits assumed): T1 sequence (P06935 584-692 limits assumed)
Method: as §1
Blocking of interaction between rDIII and proteins of hBMECs by peptides (ELISA). First, different concentrations of rDIII were tested to get the minimum concentration of rDIII required to show the interaction with hBMECs proteins. Protein extract of hBMECs (4 μg/well) diluted in coating buffer (0.5 M Na2CO3, 0.5 M NaHCO3; pH 9.5) was incubated in the microtiter wells for overnight at 4°C. Unbound hBMECs proteins were washed with PBS (pH 7.3) containing 0.05% Tween 20 (0.05% PBST) and non-specific binding sites were blocked with 0.5% BSA in 0.05% PBST. rDIII at different concentrations (5 µg, 2.5 µg, 2 µg, 1 µg, 500 […]
ng, 250 ng, 125 ng, and 62.5 ng) diluted in 0.05% PBST was added into wells and incubated for 3 h at room temperature and constant shaking. Wells were washed 3 times with 0.05% PBST and incubated with HisProbe-HRP conjugate (1:5,000 dilution in 0.1% BSA in 0.05% PBST; Thermo Fisher Scientific) for 30 min at room temperature and constant shaking. […] The reaction was stopped after 25 min with 2 M H2SO4 and the absorbance was measured at 450 nm. […]
After blocking, the wells were washed 3 times with 0.05% PBST, pre-incubated rDIII was added and incubated for 3 h at room temperature with constant shaking. […] The reaction was stopped after 25 min with 2 M H2SO4 and the absorbance was measured at 450 nm. hBMECs proteins incubated with untreated rDIII were used as a positive control. […]

hBMECs = assay: Peptide cytotoxicity assay (XTT); type: cell-based, human; conditions: positive control; hBMECs; untreated = 100% viability
Method: The toxicity of peptides was determined by the XTT test (AppliChem, USA) as per the manufacturer’s instructions. Details are presented in Supplementary Method S15. […]
Cytotoxicity assay. hBMECs were cultured in 96-well TPP tissue culture plates (Sigma) in supplemented EBM-2 medium (Lonza) to obtain ~70% confluency (as described in Supplementary Method S1). The peptides in concentrations of 1 µM, 2 µM, 4 µM, and 6 µM (diluted in 100 µL of EBM-2 medium supplemented only with 10% FBS, 10 mM HEPES and 1 ng/mL bFGF; Sigma) were added and incubated for 24 h at 37°C in a humid atmosphere of 5% CO2. Untreated cells served as a negative control (100% viability). For positive control, cells treated with 0.01% Triton X-100 were used. After incubation, the mixture of XTT and activation reagent (5:0.1 [v/v], 50 µL each well) was added to each well and incubated for an additional 3 h at 37°C in a humid atmosphere of 5% CO2. The absorbance was measured at 450 nm. The assay was performed in replicates. The viability (%) of endothelial cells was calculated using the formula: Cell viability (%) = [(A - xA ) × 100] / (xA -

[3] = molecular target: proteins of hBMECs (human (endogenous in hBMECs)); assay: ELISA; proteins of hBMECs coated into microtiter wells, rDIII (2 µg, printed as 0.15 nM) added without pre-blocking; negative control (no rDIII) subtracted

Substance	A450, ELISA of peptide binding to rDIII (rDIII)	inhibition of the interaction between rDIII and ~ 15 kDa hBMECs receptor (Western blot) [1]	further results
CDPRHSKFC (ACDPRHSKFCGGGS; disulfide 2-10 (inferred)) [CP15]	> 1.5	did not show clear inhibition of the interaction	
CMQTQRAHC (ACMQTQRAHCGGGS; disulfide 2-10 (inferred)) [CP6]	> 1.5	did not show clear inhibition of the interaction	
CTNANHYFC (ACTNANHYFCGGGS; disulfide 2-10 (inferred)) [CP7]	> 1.5		inhibition of the interaction between rDIII and hBMECs proteins [2]: 37%
SGVYKVAYDWQH (SGVYKVAYDWQHGGGS; left off: His6, N-terminal, cleaved | 28 aa tag, N-terminal, cleaved) [LP3]	2.564 and > 1.5	did not show clear inhibition of the interaction	
Triton X-100 [reference compound]			cell viability (XTT) (hBMECs): < 2.8%
recombinant domain III (DIII) of the envelope (E) glycoprotein of West Nile virus (domain or fragment)			A450 [3]: 1.06
